What is called Kd is the equilibrium constant for the complex coming apart. A lower Kd goes with a tighter complex. As usually defined, the stoichiometry N is the number of molecules, sites or subunits per partner or assembly.

This note sets out measurements from PMC9189065 (Cell, 2022).

One test addresses mouse METAP1(1-59) (mouse, UniProt Q8BP48 1-59). In words: other fluorescence titration.
The next test addresses mouse METAP1(1-79) (mouse, UniProt Q8BP48 1-79). As to the kind of experiment: other fluorescence titration.
The target in test [1] is zebrafish MBP-Metap1, full length (zebrafish, UniProt Q4QRK0 1-386). In words: pull-down.

For Ac-EEDPAEEDCPELVPIETTQSE-NH2 [human ZNG1 N-terminal peptide, synthetic], in the test with mouse METAP1(1-59), the Kd was roughly 100 nM and the “stoichiometry N” value was 1. Further, in the test with mouse METAP1(1-79), the Kd was roughly 100 nM and the “stoichiometry N” value is 1.

B1: zebrafish Zng1, full length, purified (natural protein)
chain: not shown
Consider B1, for which the binding result in test [1] was “binds”.
For the molecule Ac-MEDEDECPELVPIKEKPSG-NH2 [zebrafish Zng1 N-terminal peptide, synthetic], in the test with mouse METAP1(1-59), the Kd was roughly 100 nM and the “stoichiometry N” value worked out at 1. Besides, in the test with mouse METAP1(1-79), the dissociation constant (Kd) is roughly 100 nM and the “stoichiometry N” value is 1.
